B1: glmS ribozyme (parent)
chain: AUAAAAGCGCCAGAACUACAGAAAUGUAGUUGACGAGGAGGAGGUUUAUCGAAUUUUCGGCGGAUGCCUCCAAA

± gives the standard error. Fewer inactive variants are shown than the library holds. A value given as a limit tells only on which side of the number the result lay.

Variants of B1 are the subject of the first series. The experiment in a line: self-cleavage kobs at 2500 uM GlcN6P; higher = faster cleavage; RNA array. The settings on record: with glucosamine-6-phosphate. A digest of the protocol: (§1)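 Using a hybridised Cy3 probe at 37 °C, barcoded ribozyme variants transcribed in situ by E. coli RNA polymerase on sequenced MiSeq chips were monitored across tiles imaged over ~14 h. The flow contained glucosamine-6-phosphate from 40 μM to 10 mM in HEPES/KCl/Mg(OAc)2 buffer. Signals were normalised to baseline and to non-cleaving reference variants before per-tile medians were fit to one- or two-exponential decays to yield kobs. Weighted Michaelis–Menten fits across concentrations gave kcat and KM.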
For the variant AUAAAAGCGCCACGACUACAGAAAUGUAGUUGACGAGGAGGAGGUUUAUCGAAUUUUCGGCGGAUGCUUCCAAA, the “self-cleavage kobs at 2500 uM GlcN6P” value turned out to be 8.88e-05 ± 2.7e-05 s⁻¹.

Turning to AUAAAAGCGCCAGAACUACAGAAAUGUAGUUGCCUAGGAGGGGGUUUGUCGAAUUUUCGGCGGAUGCCUCCAAA, the “self-cleavage kobs at 2500 uM GlcN6P” value is under 1e-05 s⁻¹.

On to AUAAAAGCGCCAGAACUACAGAAAUGUAGUUGAGGAGGAGGCGGUUUAUCGAAUUUUCGGCGCAGGCCUCCAAA, for which the “self-cleavage kobs at 2500 uM GlcN6P” value is under 1e-05 s⁻¹.

Consider AUAAAAGCGCCAGGACUACAGAAAUGUAGUUGACGAGGAACAGGUUUAUCGAAUUUUCGGCGGAUGCCUCCAAA, for which the “self-cleavage kobs at 2500 uM GlcN6P” value turned out to be 0.00048 ± 0.0001 s⁻¹.

For AUAAAAGCCCAAGAACUACAGAAAUGUAGUUGACAAUGCGGAGGUUUAUCGAAUUUUCUGCGGAUGCCUCCAAA, the “self-cleavage kobs at 2500 uM GlcN6P” value was under 1e-05 s⁻¹.

Turning to AUAAAAGCCCCAGAACUACAGAAAUGUAGUUGCCGAGCCGGAGGUUUAUCGAAUUUUCGGCGGAGGCCUCCAAA, the “self-cleavage kobs at 2500 uM GlcN6P” value was under 1e-05 s⁻¹.

As for AUAAAAUUGCCAGAACUACAGAAAUGUAGUUGACCAGGAGGAGGUUUAUCGAAUUUUCGGCAGAUGCCUCCAAA, the “self-cleavage kobs at 2500 uM GlcN6P” value was under 1e-05 s⁻¹.

Turning to AUAAAAGCGCCAGAACUACAGAAAUGUAGUUGACAAGGAGGAGGUAUAUCGAAUUUUCGGCGGGUGCCUCCAAA, the “self-cleavage kobs at 2500 uM GlcN6P” value was under 1e-05 s⁻¹.

For the variant AUAAAAGCACCAGAAGUACAGAAAUGUAGUUGCCGAGGAGGAGGUUUAUCUAAAUUUUGGCGGAUGCCUCCAAA, the “self-cleavage kobs at 2500 uM GlcN6P” value is under 1e-05 s⁻¹.

For AUAAAAGCGCCAGAACUACAGAAAUGUAGUUGACGAGGAGGAGGUUUAUCGAUUUGUCGGCGGAGGCCUCCAAA, the “self-cleavage kobs at 2500 uM GlcN6P” value was 0.000913 ± 0.00018 s⁻¹.

For the variant AUAAACGCGCCAGAACUACAGAAAUGUAGUUGACGAGGAGGAGGUCUACCGAAUUUUCGGCGAAUGCCUCCAAA, the “self-cleavage kobs at 2500 uM GlcN6P” value was under 1e-05 s⁻¹.

As to AUAAAAGCGCCAGAACUACAGAAAUGUAGUUGACGAACAGGCGGUUUAUCGAAUUUUCGGCGGAUGCCUCCAAA, the “self-cleavage kobs at 2500 uM GlcN6P” value was under 1e-05 s⁻¹.

Take AUAAAAGCGCCAGAAAUACAGAAAUGUAGUUGACGAGGAGGAGGUUUAUCGAAUUUUCGGCGGAUACCUCGAAA: the “self-cleavage kobs at 2500 uM GlcN6P” value amounted to 5.24e-05 ± 2.5e-05 s⁻¹.

With AUAAAAGCGCCAGAAUUACAGAAAUGUAGUUGACGAGGAGGACGGUUAUCGAAUUUUCGGCGGAUGCCUCCAAA, the “self-cleavage kobs at 2500 uM GlcN6P” value was 0.000762 ± 0.00024 s⁻¹.

For the variant AUAAAAGCGCCAGCACUACAGAAAUGUAGUUGACGAGGAGGAGGUUUAUAGAUUUUUCGGCGGAUGCCUGCAAA, the “self-cleavage kobs at 2500 uM GlcN6P” value amounted to 4.72e-05 ± 2e-05 s⁻¹.

As for AUAAAAGCGCCAGAACUACAGAAAUGUAGUUCACGAGGAGGAGGUUUAUUGAAUUUUCGGCGGAUGCCACCAAA, the “self-cleavage kobs at 2500 uM GlcN6P” value was 0.000245 ± 8.3e-05 s⁻¹.

Consider AUAAAAGCGCCAUAACUACAGAAAUGUAGUUGACGAGGAGGCGGUUUAUCGAAUUUUCGGCGGAUGCCUCGAAA, for which the “self-cleavage kobs at 2500 uM GlcN6P” value was under 1e-05 s⁻¹.

As to AUAAAAGCGCCAGAACUACAGAAAUGUAGUGGACGAGUAGGUGGUUUAUCGAAUUUUCGGCGGAUGCCUCCAAA, the “self-cleavage kobs at 2500 uM GlcN6P” value was under 1e-05 s⁻¹.

In the case of AUAAAAGCACCAGAACUACAGAAAUGUAGUUGACGAGGAGGACGGUUAUCGAAUUUUCGGCGGACGCCUCCAAA, the “self-cleavage kobs at 2500 uM GlcN6P” value is under 1e-05 s⁻¹.

For the variant AUAAAAGCGACAGAACUACAGAAAUGUAGUUGACGAGGAGGAGGUUUAUAGAAUUUUCGGCGGAUGUCUCCAAA, the “self-cleavage kobs at 2500 uM GlcN6P” value was 0.000776 ± 0.00021 s⁻¹.

On to AUAAAAGUGCCCGAACUACAGAAAUGUAGAUGACGAGGAGGAGGUUUAUCGAAUUUUCGGCGGAUGCCUCCAAA, for which the “self-cleavage kobs at 2500 uM GlcN6P” value is under 1e-05 s⁻¹.

Consider AUAAAAGCGCCAGCACUACAGAAAUGUAGUUGACGAGGAGGACGUUUAUCAAAUUGUCGGCGGAUGCCUCCAAA, for which the “self-cleavage kobs at 2500 uM GlcN6P” value was under 1e-05 s⁻¹.

As for AUAAAAGCGCCAGAACUACAGAAAUGUAGGUGACGAGGAGGGGGUUUAUCGAAUUUUCGGCGGAUUCCUCAAAA, the “self-cleavage kobs at 2500 uM GlcN6P” value turned out to be 4.6e-05 ± 2.2e-05 s⁻¹.

As for AUAAAAGCGCCAGAACUACAGAAAUGUAGUUGACGAGGAGGAGGUUUAUUCAUUUUUCGGCGGAUGCCUCCAAA, the “self-cleavage kobs at 2500 uM GlcN6P” value was under 1e-05 s⁻¹.

As to AUAAAAGCGCCAGAACUACAGAAAUGUAAUUUACGAGGAGGAGGUUUAUCGAAUUUUCGCCGGAUGCCUCCAAA, the “self-cleavage kobs at 2500 uM GlcN6P” value was under 1e-05 s⁻¹.

Take AUAAAAGCGCUAGAACUACAGAAAUGUAAUUGACGAGGAGGAGGUUUAUCGAAUUUUCGGCGGAUGCCUCGAAA: the “self-cleavage kobs at 2500 uM GlcN6P” value was 8.63e-05 ± 3e-05 s⁻¹.

As to AUAAAAGCGUCAGAACUACAGAAAUGUAGUUGACGAGGAGGAGGUUUAUCGUUUCUUCGGCGGAGGCCUCCAAA, the “self-cleavage kobs at 2500 uM GlcN6P” value was under 1e-05 s⁻¹.

For AUAAAAGCGCCAGAACUACAGAAAUGUAUUUGGCGAGGAAGAGGUUUAUCGAAUUUUCGGCGGAUGCCUCCAAA, the “self-cleavage kobs at 2500 uM GlcN6P” value is under 1e-05 s⁻¹.

AUAAAACGGCCAGAACUACAGAAAUGUAGUUGACGAGGACGAGGUUUAUCGAAUUUUCGGCGGAUGCCUCCAAA: the “self-cleavage kobs at 2500 uM GlcN6P” value was under 1e-05 s⁻¹.

Turning to AUAAAAGCGCCAGAACUACAGAAAUGUAGUUGACGAGGAGGGGAUUUAUCUAAUUUUCGGCGGAUGCCUCCAAA, the “self-cleavage kobs at 2500 uM GlcN6P” value is under 1e-05 s⁻¹.

With AUAAAAGCGCCUGAACUACAGAAAUGUAGUUGACGAGGAGAAGGUUUAUCGAAUUUUCGGCGGAUGCUUCCAAA, the “self-cleavage kobs at 2500 uM GlcN6P” value was 3.9e-05 ± 1.6e-05 s⁻¹.

Consider AUAAAAGCGCCAGAACUACAGAAAUGUAGUUGACGAGGCGGAGGUUUAUCGAGUUUUAGGAGGAUGCCUCCAAA, for which the “self-cleavage kobs at 2500 uM GlcN6P” value was under 1e-05 s⁻¹.

The variants in the next series derive from B1. Nature of the series: self-cleavage kobs at 10000 uM GlcN6P; higher = faster cleavage; RNA array. The following applies: with glucosamine-6-phosphate. In short, it runs like this:
as §1
Take AUAAAAGCACCAGAACUACAGAAAUGUAGUUGACGAGGAGGACGGUUAUCGAAUUUUCGGCGGACGCCUCCAAA: the “self-cleavage kobs at 10000 uM GlcN6P” value was under 1e-05 s⁻¹.

With AUAAAAGCGACAGAACUACAGAAAUGUAGUUGACGAGGAGGAGGUUUAUAGAAUUUUCGGCGGAUGUCUCCAAA, the “self-cleavage kobs at 10000 uM GlcN6P” value was 4.36e-05 ± 1.7e-05 s⁻¹.

In the case of AUAAAAGCGCCAGCACUACAGAAAUGUAGUUGACGAGGAGGACGUUUAUCAAAUUGUCGGCGGAUGCCUCCAAA, the “self-cleavage kobs at 10000 uM GlcN6P” value was under 1e-05 s⁻¹.

For AUAAAAGCGCCAGAACUACAGAAAUGUAGUUGACGAGGAGGGGAUUUAUCUAAUUUUCGGCGGAUGCCUCCAAA, the “self-cleavage kobs at 10000 uM GlcN6P” value was under 1e-05 s⁻¹.

As for AUAAAAGCGCCUGAACUACAGAAAUGUAGUUGACGAGGAGAAGGUUUAUCGAAUUUUCGGCGGAUGCUUCCAAA, the “self-cleavage kobs at 10000 uM GlcN6P” value is 6.86e-05 ± 1.4e-05 s⁻¹.

The values are drawn from the supplement of paper PMC7125110.
